B1: variant 6-5 (Fc fusion)
VHH: EVQLVESGGGLVQPGGSLRLSCAASGRTFTMGWFRQAPGKEREFVASTNSAGSTNYADSVNGRFTISADNSKNTAYLQMNSLKPEDTAVYYCTTVDQYFDYWGQGTLVTVSS
B2: variant 6-6 (Fc fusion)
VHH: EVQLVESGGGLVQPGGSLRLSCAASGTTLDYYAMGWFRQAPGKERELVAAISWSGGSTAYADSVKGRFTISADNSKNTAYLQMNSLKPEDTAVYYCAREDYYDSSGYSWGQGTLVTVSS
B3: variant 6-10 (Fc fusion)
VHH: EVQLVESGGGLVQPGGSLRLSCAASGSIASIHAMGWFRQAPGKEREFVAAISRSGGFGSYADSVKGRFTISADNSKNTAYLQMNSLKPEDTAVYYCARDDKYYDSSGYPAYFQHWGQGTLVTVSS
B4: variant 6-12 (Fc fusion)
VHH: EVQLVESGGGLVQPGGSLRLSCAASGSTYTTYSMGWFRQAPGKEREFVAAISGSENVTSYADSVKGRFTISADNSKNTAYLQMNSLKPEDTAVYYCARVDDYMDVWGQGTLVTVSS
B5: variant 6-13 (Fc fusion)
VHH: EVQLVESGGGLVQPGGSLRLSCAASGLTFNDYAMGWFRQAPGKEREFVAHIPRSTYSPYYADSVKGRFTISADNSKNTAYLQMNSLKPEDTAVYYCAFLVGPQGVDHGAFDVWGQGTLVTVSS
B6: variant 6-14 (Fc fusion)
VHH: EVQLVESGGGLVQPGGSLRLSCAASGITFRFKAMGWFRQAPGKEREFVAAVSWDGRNTYYADSVKGRFTISADNSKNTAYLQMNSLKPEDTAVYYCASDYYYMDVWGQGTLVTVSS
B7: variant 6-15 (Fc fusion)
VHH: EVQLVESGGGLVQPGGSLRLSCAASGSTVLINAMGWFRQAPGKEREFVAAVRWSDDYTYYADSVKGRFTISADNSKNTAYLQMNSLKPEDTAVYYCAKEGRAGSLDYWGQGTLVTVSS
B8: variant 6-16 (Fc fusion)
VHH: EVQLVESGGGLVQPGGSLRLSCAASGFTFDDAAMGWFRQAPGKEREFVAHISWSGGSTYYADSVKGRFTISADNSKNTAYLQMNSLKPEDTAVYYCATFGATVTATNDAFDIWGQGTLVTVSS
B9: variant 6-17 (Fc fusion)
VHH: EVQLVESGGGLVQPGGSLRLSCAASGNTGSTGYMGWFRQAPGKEREMVAGVINDGSTVYADSVKGRFTISADNSKNTAYLQMNSLKPEDTAVYYCARLATSHQDGTGYLFDYWGQGTLVTVSS
B10: variant 6-18 (Fc fusion)
VHH: EVQLVESGGGLVQPGGSLRLSCAASGLTFRNYAMGWFRQAPGKEREFIAGMMWSGGTTTYADSVKGRFTISADNSKNTAYLQMNSLKPEDTAVYYCAREGYYYDSSGYLNYFDYWGQGTLVTVSS
B11: variant 6-19 (Fc fusion)
VHH: EVQLVESGGGLVQPGGSLRLSCAASGSILSIAVMGWFRQAPGKEREFVAAISPSAVTTYYADSVKGRFTISADNSKNTAYLQMNSLKPEDTAVYYCAIGYYDSSGYFDYWGQGTLVTVSS
B12: variant 6-20 (Fc fusion)
VHH: EVQLVESGGGLVQPGGSLRLSCAASGSTLPYHAMGWFRQAPGKEREFVAAITWNGASTSYADSVKGRFTISADNSKNTAYLQMNSLKPEDTAVYYCARDRYYDTSASYFESETWGQGTLVTVSS
notes: VHH-Fc
B13: variant 6-22 (Fc fusion)
VHH: EVQLVESGGGLVQPGGSLRLSCAASGRTFSEVVMGWFRQAPGKEREFVATIHSSGSTSYADSVKGRFTISADNSKNTAYLQMNSLKPEDTAVYYCVRVTSDYSMDSWGQGTLVTVSS
B14: variant 6-23 (Fc fusion)
VHH: EVQLVESGGGLVQPGGSLRLSCAASGSIFSMNTMGWFRQAPGKEREFVALINRSGGGINYADSVKGRFTISADNSKNTAYLQMNSLKPEDTAVYYCVRLSSGYYDFDYWGQGTLVTVSS
B15: variant 6-24 (Fc fusion)
VHH: EVQLVESGGGLVQPGGSLRLSCAASGFTLDYYAMGWFRQAPGKEREFVAAINWSGDNTHYADSVKGRFTISADNSKNTAYLQMNSLKPEDTAVYYCARAPFYCTTTKCQDNYYYMDVWGQGTLVTVSS
B16: variant 6-25 (Fc fusion)
VHH: EVQLVESGGGLVQPGGSLRLSCAASGLTFGTYTMGWFRQAPGKEREFVAAISRFGSTYYADSVKGRFTISADNSKNTAYLQMNSLKPEDTAVYYCARGGDYDFWSVDYMDVWGQGTLVTVSS
B17: variant 6-26 (Fc fusion)
VHH: EVQLVESGGGLVQPGGSLRLSCAASGDTFSTSWMGWFRQAPGKEREFVATINTGGGTNYADSVKGRFTISADNSKNTAYLQMNSLKPEDTAVYYCARVTTSFDYWGQGTLVTVSS
notes: VHH-Fc
B18: variant 6-30 (Fc fusion)
VHH: EVQLVESGGGLVQPGGSLRLSCAASGFAFGDSWMGWFRQAPGKEREFVATINWSGVTAYADSVKGRFTISADNSKNTAYLQMNSLKPEDTAVYYCARADGYFDYWGQGTLVTVSS
B19: variant 6-77 (Fc fusion)
VHH: EVQLVESGGGLVQPGGSLRLSCAASGFTFDRSWMGWFRQAPGKEREFVAAVTEGGTTSYADSVKGRFTISADNSKNTAYLQMNSLKPEDTAVYYCARADYDFDYWGQGTLVTVSS
B20: variant 6-28 (Fc fusion)
VHH: EVQLVESGGGLVQPGGSLRLSCAASGDTYGSYWMGWFRQAPGKEREFVATITSDDRTNYADSVKGRFTISADNSKNTAYLQMNSLKPEDTAVYYCARVTSSLSGMDVWGQGTLVTVSS
B21: variant 6-31 (Fc fusion)
VHH: EVQLVESGGGLVQPGGSLRLSCAASGDTFSANRMGWFRQAPGKEREFVASITWSSANTYYADSVKGRFTISADNSKNTAYLQMNSLKPEDTAVYYCATFNWNDEGFDFWGQGTLVTVSS
B22: variant 6-32 (Fc fusion)
VHH: EVQLVESGGGLVQPGGSLRLSCAASGFTLDYYDMGWFRQAPGKEREFVALISWSGGSTYYADSVKGRFTISADNSKNTAYLQMNSLKPEDTAVYYCATDFYGWGTRERDAFDIWGQGTLVTVSS
B23: variant 6-33 (Fc fusion)
VHH: EVQLVESGGGLVQPGGSLRLSCAASGTFQRINHMGWFRQAPGKEREFVATINTGGQPNYADSVKGRFTISADNSKNTAYLQMNSLKPEDTAVYYCASLIAAQDYYFDYWGQGTLVTVSS
B24: variant 6-34 (Fc fusion)
VHH: EVQLVESGGGLVQPGGSLRLSCAASGSAFRSNAMGWFRQAPGKEREFVAHISWSSKSTYYADSVKGRFTISADNSKNTAYLQMNSLKPEDTAVYYCATYCSSTSCFDYWGQGTLVTVSS
B25: variant 6-36 (Fc fusion)
VHH: EVQLVESGGGLVQPGGSLRLSCAASGFDFSVSWMGWFRQAPGKEREFVTAITWSGDSTNYADSVKGRFTISADNSKNTAYLQMNSLKPEDTAVYYCASLLHTGPSGGNYFDYWGQGTLVTVSS
B26: variant 6-37 (Fc fusion)
VHH: EVQLVESGGGLVQPGGSLRLSCAASGHTFSTSWMGWFRQAPGKEREFVATINSLGGTNYADSVKGRFTISADNSKNTAYLQMNSLKPEDTAVYYCARVSSGDYGMDVWGQGTLVTVSS
B27: variant 6-38 (Fc fusion)
VHH: EVQLVESGGGLVQPGGSLRLSCAASGNTFSGGFMGWFRQAPGKEREFVAVISSLSSKSYADSVKGRFTISADNSKNTAYLQMNSLKPEDTAVYYCAKVDSGYDYWGQGTLVTVSS
B28: variant 6-39 (Fc fusion)
VHH: EVQLVESGGGLVQPGGSLRLSCAASGFTFSPSWMGWFRQAPGKEREFVAAISWSGGSTAYADSVKGRFTISADNSKNTAYLQMNSLKPEDTAVYYCHGLGEGDPYGDYEGYFDLWGQGTLVTVSS
B29: variant 6-40 (Fc fusion)
VHH: EVQLVESGGGLVQPGGSLRLSCAASGFTFSDYWMGWFRQAPGKERELVARVWWNGGSAYYADSVKGRFTISADNSKNTAYLQMNSLKPEDTAVYYCAREVLRQQVVLDYWGQGTLVTVSS
B30: variant 6-41 (Fc fusion)
VHH: EVQLVESGGGLVQPGGSLRLSCAASGFTFSTSWMGWFRQAPGKEREFVASINEYGGRNYADSVKGRFTISADNSKNTAYLQMNSLKPEDTAVYYCAGLHYYYDSSGYNPTEYYGMDVWGQGTLVTVSS
B31: variant 6-42 (Fc fusion)
VHH: EVQLVESGGGLVQPGGSLRLSCAASGDTYGSYWMGWFRQAPGKEREFVAVITSGGSTNYADSVKGRFTISADNSKNTAYLQMNSLKPEDTAVYYCTHVQNSYYYAMDVWGQGTLVTVSS
B32: variant 6-43 (Fc fusion)
VHH: EVQLVESGGGLVQPGGSLRLSCAASGRTFSSYAMMGWFRQAPGKEREFVASVNWDASQINYADSVKGRFTISADNSKNTAYLQMNSLKPEDTAVYYCTTLGAVYFDSSGYHDYFDYWGQGTLVTVSS
B33: variant 6-44 (Fc fusion)
VHH: EVQLVESGGGLVQPGGSLRLSCAASGGTFGVYHMGWFRQAPGKEREFIGRITWTDGSTYYADSVKGRFTISADNSKNTAYLQMNSLKPEDTAVYYCFGLLEVYDMTFDYWGQGTLVTVSS
B34: variant 6-45 (Fc fusion)
VHH: EVQLVESGGGLVQPGGSLRLSCAASGNMFSINAMGWFRQAPGKEREFVTLISWSSGRTSYADSVKGRFTISADNSKNTAYLQMNSLKPEDTAVYYCASLGYCSGGSCFDYWGQGTLVTVSS

These binders were tested against CV S-protein construct 6 trimer TP31001F (SARS-CoV-2, UniProt P0DTC2 14-1208) (assay: SPR).

In order of falling Kd:
1. B7  9050 nM
2. B6  466 nM
3. B2  67.7 nM
4. B21  20.7 nM
5. B31  7.8 nM
6. B16  5.8 nM
7. B10  5.3 nM
8. B19  3.5 nM
9. B8  2.2 nM
10. B29  1.9 nM
11. B13  1.8 nM
12. B4  1.4 nM
13. B34  1.3 nM
14. B11  1 nM
15. B30  1 nM
16. B33  0.9 nM
17. B1  0.8 nM
18. B25  0.8 nM
19. B24  0.7 nM
20. B26  0.7 nM
21. B32  0.7 nM
22. B3  0.6 nM
23. B5  0.6 nM
24. B9  0.6 nM
25. B27  0.5 nM
26. B20  0.4 nM
27. B12  0.3 nM
28. B14  0.3 nM
29. B15  0.2 nM
30. B23  0.2 nM
31. B17  0.1 nM
32. B18  0.1 nM
33. B22  0.1 nM
34. B28  0.1 nM

Source: patent US20210355194A1 (TWIST BIOSCIENCE, published 2021)
